# Source: US20090317890
# T1: human fibrin (clot formed from human fibrinogen, Sigma, with human thrombin), P02671
# T1 chain 1: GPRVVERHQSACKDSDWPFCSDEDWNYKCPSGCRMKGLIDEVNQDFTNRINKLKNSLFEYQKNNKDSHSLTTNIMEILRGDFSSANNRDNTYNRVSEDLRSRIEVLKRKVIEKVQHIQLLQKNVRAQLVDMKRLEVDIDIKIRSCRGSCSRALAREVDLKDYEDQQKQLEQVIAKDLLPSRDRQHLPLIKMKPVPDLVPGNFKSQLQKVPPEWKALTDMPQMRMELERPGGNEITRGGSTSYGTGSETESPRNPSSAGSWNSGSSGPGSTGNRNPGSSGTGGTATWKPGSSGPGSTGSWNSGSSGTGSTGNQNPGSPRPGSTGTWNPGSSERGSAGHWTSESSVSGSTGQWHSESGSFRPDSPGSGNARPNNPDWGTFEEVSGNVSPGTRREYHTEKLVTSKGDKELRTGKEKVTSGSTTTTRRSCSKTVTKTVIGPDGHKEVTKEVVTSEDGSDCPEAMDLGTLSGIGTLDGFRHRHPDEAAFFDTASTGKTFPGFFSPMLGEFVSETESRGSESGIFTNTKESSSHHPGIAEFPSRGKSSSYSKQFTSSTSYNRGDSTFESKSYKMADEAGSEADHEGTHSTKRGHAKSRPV
# T1 chain 2: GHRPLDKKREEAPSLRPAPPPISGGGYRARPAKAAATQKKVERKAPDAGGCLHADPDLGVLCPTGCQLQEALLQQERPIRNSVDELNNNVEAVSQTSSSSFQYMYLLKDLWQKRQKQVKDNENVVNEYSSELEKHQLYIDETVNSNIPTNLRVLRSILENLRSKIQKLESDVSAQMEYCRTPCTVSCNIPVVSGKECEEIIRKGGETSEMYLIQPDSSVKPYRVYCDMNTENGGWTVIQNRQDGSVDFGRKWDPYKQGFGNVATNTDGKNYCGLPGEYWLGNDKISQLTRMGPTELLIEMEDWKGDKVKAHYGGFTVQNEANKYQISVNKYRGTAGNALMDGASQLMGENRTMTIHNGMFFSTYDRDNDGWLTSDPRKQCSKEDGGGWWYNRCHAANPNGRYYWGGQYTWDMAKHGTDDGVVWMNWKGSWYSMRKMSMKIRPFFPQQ
# T1 chain 3: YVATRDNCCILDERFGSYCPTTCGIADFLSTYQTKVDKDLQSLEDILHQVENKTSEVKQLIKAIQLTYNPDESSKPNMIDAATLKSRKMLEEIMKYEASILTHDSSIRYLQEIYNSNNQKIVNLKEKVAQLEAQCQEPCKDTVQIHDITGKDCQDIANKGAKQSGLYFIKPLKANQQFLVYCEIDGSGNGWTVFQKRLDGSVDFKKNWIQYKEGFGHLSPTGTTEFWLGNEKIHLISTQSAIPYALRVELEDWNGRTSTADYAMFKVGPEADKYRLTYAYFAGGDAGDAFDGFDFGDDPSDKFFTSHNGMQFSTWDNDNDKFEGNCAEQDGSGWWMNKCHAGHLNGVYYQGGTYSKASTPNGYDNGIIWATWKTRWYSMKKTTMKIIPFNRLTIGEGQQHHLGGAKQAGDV
# Biological target: T1, human fibrin (clot formed from human …)
protein,measurement,value
recombinant zinc-dependent metalloprotease (fibrinolytic protease from metagenomic clone pES63H9) (protein) MEPEPIKTCTVLENPGYQPIHAPTDVSPQPVLAAMEAVPVPTPPPTVDAVMLFRKKWRDGKILRVHFMDGDPDVHRKVEEVAHTWSRHANVRFKFVDDPAADIRISFTQPGSWSYLGTDALRIARSQSTMNFGWLTPRSPDSEYNRVVIHEFGHALGLVHEHQNPDNGIPWNKPAVYEYYSGPPNNWSKEQVDTNLFQQYSEDQVRFTGFDRESIMLYPIPNEFTVGDFEVGWNRDLSADDKEFIGRMYPKPANELIVDDPPRASEISRYGEIDTYTFLVTQKGSYRIETDGRTDLVMLLYGPEDDTKLIAADDDSGRRLNPRITEELDWGKYTVRLQHFSQRQTGKYAVGVYRDDAAE,"hydrolysis of the fibrin α-chain, SDS-PAGE time course at 37° C.",the purified enzyme completely hydrolyzed the α-chain and the γ-γ-chain at 37 °C after 1 h
same,"hydrolysis of the fibrin β-chain, SDS-PAGE time course at 37° C.","The enzyme also partially hydrolyzed the β-chain after 30 min; however, it was not completely hydrolyzed after 2 h and even after 24 h (data not shown)"
same,"hydrolysis of the fibrin γ-γ-chain, SDS-PAGE time course at 37° C.",the purified enzyme completely hydrolyzed the α-chain and the γ-γ-chain at 37 °C after 1 h
